In the supplement of paper PMC10065799, “High-throughput profiling of sequence recognition by tyrosine kinases and SH2 domains using bacterial peptide display” (eLife, 2023):

What follows are sequences tested on AncSZ (assay: phosphorylation enrichment, bacterial display (enrichment ratio); higher = better substrate or ligand; peptides without Tyr show the background).
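Also: 11-residue human phosphosite peptides and single-mutation variants displayed on the E. coli surface, counted by deep sequencing, each peptide's frequency after selection divided by its frequency in the unselected input library; frequency after pTyr selection over input frequency; kinase dosed for 20-30% of maximal phosphorylation in three min.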

Sequence	phosphorylation enrichment
DLQDEYDFKCK [STAT1_Y170]	1.28
RLLVVYRWTQR [HBB_Y36_P37R]	1.56
LPKEQYLFTKE [AFG3L2_Y614_YF]	0.83
QISSNYDDAMQ [ZNF281_Y531]	0.962
CSGNCYLDIRP [FBN1_Y1535_R1530C]	0.591
GSERDYTYEEL [EIF2S2_Y174]	1.36
LGRTRYQDVTG [MIPEP_Y510_H512D]	0.899
LLLLFYVVRFC [MPZ_Y177_YF]	0.918
VYSIDYYRVGG [NTRK2_Y706_T704I]	2.29
VQVAYYTMMMN [SPATA17_Y84]	1.81
CTTIHYNYICN [TP53_Y234_M237I]	0.864
TFSPPYYHRNC [HGD_Y333_R330S]	0.822
GPQGFYSNKLV [PTPN14_Y506_V505F]	0.529
SRPHLYGTPSR [ADGRE2_Y670]	0.609
GDEVEYMSVSF [GCLC_Y53_L55S]	1.56
PYGQWYESHYA [RPS8_Y113_R110G]	1.55
QEIATYRRLPE [KRT16_Y417_L421P]	0.762
SYSGEYGSGGG [ZG16_Y30_G32S]	0.763
KAVLHYKHQNQ [MTOR_Y1804_E1799K]	0.6
QVKEQYQDVPM [PKP2_Y659_K654Q]	1.15
NTCNRYCCDEI [ITGB3_Y660_R662C]	1.44
FSQQTYYPVSN [ABCD1_Y180_R182P]	0.805
HAVYIYDICHV [TWNK_Y508_V507I]	2.46
SDGGCYEQLFV [MC4R_Y41]	1.69
DLTQDYEEWKR [ORC6_Y232]	1.8
TEAEPYYRSLR [NPHS1_Y1138]	0.7
DNEFAYLKAII [HNF4A_Y288_YF]	1.13
WYQTKYEELQV [KRT6B_Y360_I365V]	1.11
AKKKMYSRKTK [AGXT_Y231]	0.595

What follows are sequences tested against EPHB1 (UniProt P54762) in the same assay as above.
Chain of EPHB1 (P54762 whole entry, looked up): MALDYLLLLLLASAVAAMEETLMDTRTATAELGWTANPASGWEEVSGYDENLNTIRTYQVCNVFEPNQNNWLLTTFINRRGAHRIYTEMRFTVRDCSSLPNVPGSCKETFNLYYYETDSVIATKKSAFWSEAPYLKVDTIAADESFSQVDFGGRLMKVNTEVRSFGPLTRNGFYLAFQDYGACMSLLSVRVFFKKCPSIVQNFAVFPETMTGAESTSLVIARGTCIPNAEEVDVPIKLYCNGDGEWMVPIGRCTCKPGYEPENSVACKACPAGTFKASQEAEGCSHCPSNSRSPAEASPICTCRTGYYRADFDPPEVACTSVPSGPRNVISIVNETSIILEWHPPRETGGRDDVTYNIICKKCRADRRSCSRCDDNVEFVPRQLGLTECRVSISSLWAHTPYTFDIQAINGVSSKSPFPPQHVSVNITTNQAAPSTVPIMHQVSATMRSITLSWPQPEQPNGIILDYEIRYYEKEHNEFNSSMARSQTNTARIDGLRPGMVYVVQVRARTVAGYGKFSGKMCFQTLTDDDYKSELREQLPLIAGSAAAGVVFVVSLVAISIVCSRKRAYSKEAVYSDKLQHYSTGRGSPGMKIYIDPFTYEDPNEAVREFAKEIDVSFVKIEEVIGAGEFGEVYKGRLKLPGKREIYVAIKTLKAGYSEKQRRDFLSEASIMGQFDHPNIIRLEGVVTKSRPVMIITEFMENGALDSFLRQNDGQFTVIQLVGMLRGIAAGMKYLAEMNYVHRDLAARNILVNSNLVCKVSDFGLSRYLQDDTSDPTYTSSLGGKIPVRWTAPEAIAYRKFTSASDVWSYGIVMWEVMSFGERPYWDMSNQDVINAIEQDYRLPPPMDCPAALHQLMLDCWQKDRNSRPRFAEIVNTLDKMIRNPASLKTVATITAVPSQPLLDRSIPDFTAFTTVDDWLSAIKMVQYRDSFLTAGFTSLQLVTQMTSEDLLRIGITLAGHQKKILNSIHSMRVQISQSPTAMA

Sequence	phosphorylation enrichment
DLQDEYDFKCK [STAT1_Y170]	0.598
RLLVVYRWTQR [HBB_Y36_P37R]	0.372
LPKEQYLFTKE [AFG3L2_Y614_YF]	1.2
QISSNYDDAMQ [ZNF281_Y531]	0.665
CSGNCYLDIRP [FBN1_Y1535_R1530C]	0.452
GSERDYTYEEL [EIF2S2_Y174]	0.602
LGRTRYQDVTG [MIPEP_Y510_H512D]	0.62
LLLLFYVVRFC [MPZ_Y177_YF]	0.741
VYSIDYYRVGG [NTRK2_Y706_T704I]	4.12
VQVAYYTMMMN [SPATA17_Y84]	2.52
CTTIHYNYICN [TP53_Y234_M237I]	0.513
TFSPPYYHRNC [HGD_Y333_R330S]	0.45
GPQGFYSNKLV [PTPN14_Y506_V505F]	0.307
SRPHLYGTPSR [ADGRE2_Y670]	0.493
GDEVEYMSVSF [GCLC_Y53_L55S]	0.561
PYGQWYESHYA [RPS8_Y113_R110G]	14.5
QEIATYRRLPE [KRT16_Y417_L421P]	0.77
SYSGEYGSGGG [ZG16_Y30_G32S]	0.454
KAVLHYKHQNQ [MTOR_Y1804_E1799K]	0.423
QVKEQYQDVPM [PKP2_Y659_K654Q]	0.555
NTCNRYCCDEI [ITGB3_Y660_R662C]	0.694
FSQQTYYPVSN [ABCD1_Y180_R182P]	4.58
HAVYIYDICHV [TWNK_Y508_V507I]	8.01
SDGGCYEQLFV [MC4R_Y41]	0.764
DLTQDYEEWKR [ORC6_Y232]	0.796
TEAEPYYRSLR [NPHS1_Y1138]	0.422
DNEFAYLKAII [HNF4A_Y288_YF]	0.45
WYQTKYEELQV [KRT6B_Y360_I365V]	0.61
AKKKMYSRKTK [AGXT_Y231]	0.437

These sequences were tested against EPHB2 (UniProt P29323) in the same assay as above.
Chain of EPHB2 (P29323 whole entry, looked up): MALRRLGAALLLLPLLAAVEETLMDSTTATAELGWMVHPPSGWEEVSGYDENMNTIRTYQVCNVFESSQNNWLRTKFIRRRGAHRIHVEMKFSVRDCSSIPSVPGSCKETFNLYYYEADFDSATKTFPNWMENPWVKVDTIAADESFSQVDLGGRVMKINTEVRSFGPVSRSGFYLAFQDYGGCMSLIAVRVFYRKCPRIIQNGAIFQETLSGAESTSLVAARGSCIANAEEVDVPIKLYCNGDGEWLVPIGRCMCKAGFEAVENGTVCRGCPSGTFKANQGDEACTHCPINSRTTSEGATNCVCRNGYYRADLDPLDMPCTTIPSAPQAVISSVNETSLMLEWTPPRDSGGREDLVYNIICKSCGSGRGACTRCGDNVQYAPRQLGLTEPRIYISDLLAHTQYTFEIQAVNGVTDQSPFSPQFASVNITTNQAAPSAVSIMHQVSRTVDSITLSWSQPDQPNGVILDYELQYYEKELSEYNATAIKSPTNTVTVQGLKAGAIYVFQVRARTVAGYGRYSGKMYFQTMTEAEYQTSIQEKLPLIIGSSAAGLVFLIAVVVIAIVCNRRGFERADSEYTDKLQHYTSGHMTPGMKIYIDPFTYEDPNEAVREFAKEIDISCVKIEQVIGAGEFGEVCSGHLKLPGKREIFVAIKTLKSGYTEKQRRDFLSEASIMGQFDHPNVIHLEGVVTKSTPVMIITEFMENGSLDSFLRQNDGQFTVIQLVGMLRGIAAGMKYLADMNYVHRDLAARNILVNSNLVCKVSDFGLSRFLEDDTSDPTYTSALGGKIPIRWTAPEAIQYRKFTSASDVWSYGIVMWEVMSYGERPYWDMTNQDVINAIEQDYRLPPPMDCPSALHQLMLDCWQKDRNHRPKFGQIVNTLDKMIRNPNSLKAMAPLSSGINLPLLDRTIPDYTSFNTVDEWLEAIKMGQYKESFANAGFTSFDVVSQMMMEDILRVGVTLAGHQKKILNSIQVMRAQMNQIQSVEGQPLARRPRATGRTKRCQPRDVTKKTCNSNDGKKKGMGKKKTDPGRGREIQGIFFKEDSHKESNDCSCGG

Sequence	phosphorylation enrichment
DLQDEYDFKCK [STAT1_Y170]	0.702
RLLVVYRWTQR [HBB_Y36_P37R]	0.787
LPKEQYLFTKE [AFG3L2_Y614_YF]	0.471
QISSNYDDAMQ [ZNF281_Y531]	0.771
CSGNCYLDIRP [FBN1_Y1535_R1530C]	0.442
GSERDYTYEEL [EIF2S2_Y174]	0.645
LGRTRYQDVTG [MIPEP_Y510_H512D]	0.548
LLLLFYVVRFC [MPZ_Y177_YF]	0.443
VYSIDYYRVGG [NTRK2_Y706_T704I]	3.13
VQVAYYTMMMN [SPATA17_Y84]	1.17
CTTIHYNYICN [TP53_Y234_M237I]	0.505
TFSPPYYHRNC [HGD_Y333_R330S]	0.52
GPQGFYSNKLV [PTPN14_Y506_V505F]	0.387
SRPHLYGTPSR [ADGRE2_Y670]	0.617
GDEVEYMSVSF [GCLC_Y53_L55S]	0.832
PYGQWYESHYA [RPS8_Y113_R110G]	15.1
QEIATYRRLPE [KRT16_Y417_L421P]	0.592
SYSGEYGSGGG [ZG16_Y30_G32S]	0.429
KAVLHYKHQNQ [MTOR_Y1804_E1799K]	0.328
QVKEQYQDVPM [PKP2_Y659_K654Q]	0.762
NTCNRYCCDEI [ITGB3_Y660_R662C]	0.594
FSQQTYYPVSN [ABCD1_Y180_R182P]	3.55
HAVYIYDICHV [TWNK_Y508_V507I]	8.7
SDGGCYEQLFV [MC4R_Y41]	0.74
DLTQDYEEWKR [ORC6_Y232]	0.882
TEAEPYYRSLR [NPHS1_Y1138]	0.425
DNEFAYLKAII [HNF4A_Y288_YF]	0.455
WYQTKYEELQV [KRT6B_Y360_I365V]	0.707
AKKKMYSRKTK [AGXT_Y231]	0.385

What follows are sequences tested against FGFR1 (UniProt P11362) in the same assay as above.
Chain of FGFR1 (P11362 whole entry, looked up): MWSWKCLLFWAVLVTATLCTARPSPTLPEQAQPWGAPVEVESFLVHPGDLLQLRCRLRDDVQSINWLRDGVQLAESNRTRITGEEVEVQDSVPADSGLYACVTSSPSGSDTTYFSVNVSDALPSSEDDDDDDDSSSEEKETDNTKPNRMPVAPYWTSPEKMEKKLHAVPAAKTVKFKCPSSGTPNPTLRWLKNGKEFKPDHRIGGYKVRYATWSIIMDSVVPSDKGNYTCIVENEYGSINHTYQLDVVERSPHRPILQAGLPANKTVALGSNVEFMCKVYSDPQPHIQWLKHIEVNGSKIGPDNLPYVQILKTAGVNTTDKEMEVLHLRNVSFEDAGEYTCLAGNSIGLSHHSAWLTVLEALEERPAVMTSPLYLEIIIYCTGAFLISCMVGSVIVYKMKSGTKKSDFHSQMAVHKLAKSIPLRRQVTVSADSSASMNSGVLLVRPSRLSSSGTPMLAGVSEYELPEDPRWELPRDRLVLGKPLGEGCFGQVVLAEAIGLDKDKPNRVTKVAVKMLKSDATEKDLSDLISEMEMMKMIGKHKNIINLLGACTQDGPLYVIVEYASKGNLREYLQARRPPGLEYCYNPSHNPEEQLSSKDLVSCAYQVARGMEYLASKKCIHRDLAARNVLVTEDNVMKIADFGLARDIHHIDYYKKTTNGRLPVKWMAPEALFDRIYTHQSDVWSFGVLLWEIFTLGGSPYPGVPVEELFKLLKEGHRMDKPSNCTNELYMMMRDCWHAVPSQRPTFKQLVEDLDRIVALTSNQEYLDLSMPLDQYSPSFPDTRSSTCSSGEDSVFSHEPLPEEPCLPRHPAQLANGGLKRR

Sequence	phosphorylation enrichment
DLQDEYDFKCK [STAT1_Y170]	0.668
RLLVVYRWTQR [HBB_Y36_P37R]	0.652
LPKEQYLFTKE [AFG3L2_Y614_YF]	0.623
QISSNYDDAMQ [ZNF281_Y531]	0.434
CSGNCYLDIRP [FBN1_Y1535_R1530C]	0.646
GSERDYTYEEL [EIF2S2_Y174]	0.535
LGRTRYQDVTG [MIPEP_Y510_H512D]	0.525
LLLLFYVVRFC [MPZ_Y177_YF]	1.47
VYSIDYYRVGG [NTRK2_Y706_T704I]	10.9
VQVAYYTMMMN [SPATA17_Y84]	8.59
CTTIHYNYICN [TP53_Y234_M237I]	0.587
TFSPPYYHRNC [HGD_Y333_R330S]	0.565
GPQGFYSNKLV [PTPN14_Y506_V505F]	0.369
SRPHLYGTPSR [ADGRE2_Y670]	0.426
GDEVEYMSVSF [GCLC_Y53_L55S]	1.01
PYGQWYESHYA [RPS8_Y113_R110G]	2.7
QEIATYRRLPE [KRT16_Y417_L421P]	0.507
SYSGEYGSGGG [ZG16_Y30_G32S]	0.419
KAVLHYKHQNQ [MTOR_Y1804_E1799K]	0.427
QVKEQYQDVPM [PKP2_Y659_K654Q]	0.835
NTCNRYCCDEI [ITGB3_Y660_R662C]	0.595
FSQQTYYPVSN [ABCD1_Y180_R182P]	9.03
HAVYIYDICHV [TWNK_Y508_V507I]	1.57
SDGGCYEQLFV [MC4R_Y41]	0.663
DLTQDYEEWKR [ORC6_Y232]	0.509
TEAEPYYRSLR [NPHS1_Y1138]	0.458
DNEFAYLKAII [HNF4A_Y288_YF]	0.425
WYQTKYEELQV [KRT6B_Y360_I365V]	0.521
AKKKMYSRKTK [AGXT_Y231]	0.546
